Measurements reported in paper PMC2770665.

T1: EcoRII-N (His-tagged) (UniProt P14633 1-180)
T1 sequence: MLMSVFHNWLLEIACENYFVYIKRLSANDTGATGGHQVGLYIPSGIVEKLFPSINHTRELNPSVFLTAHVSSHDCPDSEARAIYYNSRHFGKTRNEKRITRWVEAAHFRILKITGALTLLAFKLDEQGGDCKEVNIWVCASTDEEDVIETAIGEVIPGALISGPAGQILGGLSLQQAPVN

T2: EcoRII-C (UniProt P14633 183-404)
T2 sequence: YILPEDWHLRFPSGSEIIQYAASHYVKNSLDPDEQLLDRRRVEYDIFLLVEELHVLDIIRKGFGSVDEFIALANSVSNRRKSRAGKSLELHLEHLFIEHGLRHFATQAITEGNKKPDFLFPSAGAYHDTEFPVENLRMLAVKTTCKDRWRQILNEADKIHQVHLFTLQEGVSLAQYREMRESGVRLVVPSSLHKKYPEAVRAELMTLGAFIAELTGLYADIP

B1: HM(A) 16-mer (dsDNA)
DNA 1: CGTAGCCTGGTCGATC
DNA 2: GATCGACCAGGCTACG
modifications: 5-methylcytosine at strand 2 position 8 (second C of CCAGG)
B2: T/2 25-mer (dsDNA)
DNA 1: CGCACGACTTCCTGGAAGAGCACGC
DNA 2: GCGTGCTCTTCCAGGAAGTCGTGCG
modifications: strand 2 position 13 is 2-aminopurine (written A) replacing central A
B3: DM 16-mer (dsDNA)
DNA 1: CGTAGCCTGGTCGATC
DNA 2: GATCGACCAGGCTACG
modifications: 5-methylcytosine at strand 1 position 7 and strand 2 position 8
B4: HM(T) 16-mer (dsDNA)
DNA 1: CGTAGCCTGGTCGATC
DNA 2: GATCGACCAGGCTACG
modifications: 5-methylcytosine at strand 1 position 7 (second C of CCTGG)

How the values were obtained:
[1] = target: T1, EcoRII-N (His-tagged); assay: EMSA
[2] = target: T2, EcoRII-C; assay: EMSA

Binder	binding result [1]	binding result [2]
B1	no binding	–
B2	no binding	–
B3	–	no binding
B4	no binding	–
